# Where “and” joins values, the source holds several entries; their conditions need not be identical. Equal values may be shown once.
# Tests used:
# [1] = target: Cetuximab (Erbitux, 5 mg/mL); experiment: SEC; SE/UHPLC-UV as a10; sample exposed to accelerated light (250 W/m^2) for 24 h
# [2] = target: Cetuximab (Erbitux, 5 mg/mL); experiment: SEC; SE/UHPLC-UV as a10; sample exposed to daylight for 24 h
substance,measurement,setting,value
"Cetuximab (Erbitux, 5 mg/mL) (antibody)",stoichiometry N,[1],3 and 8 and 5
same,stoichiometry N,[2],3
